± gives the uncertainty stated by the source.
B1: Telomeric repeat-binding factor 2, residues 489 to 542; numbered along this chain, Q15554 (parent)
chain: KQKWTVEESEWVKAGVQKYGEGNWAAISKNYPFVNRTAVMIKDRWRTMKRLGMN

Variants of: B1
Experiment: abundance fitness (aPCA) (normalised: wild type 0, dead -1); higher = more abundant; growth selection in yeast, the domain comes from the species named
Conditions: Homo sapiens

Row | Variant | abundance fitness
1 | G52Y | -0.485 ± 0.19
2 | G52A | -0.304 ± 0.085
3 | G52Q | -0.201 ± 0.11
4 | G52F | -0.223 ± 0.059
5 | G52R | -0.119 ± 0.059
6 | G52S | -0.358 ± 0.086
7 | G52I | -0.019 ± 0.065
8 | G52D | -0.011 ± 0.13
9 | G52L | -0.195 ± 0.054
10 | G52W | -0.449 ± 0.11
11 | G52E | -0.071 ± 0.1
12 | G52N | 0.049 ± 0.12
13 | G52K | -0.149 ± 0.13
14 | G52V | 0.004 ± 0.076
15 | G52H | -0.215 ± 0.13
16 | G52T | -0.1 ± 0.24
17 | G52P | 0.243 ± 0.1
18 | G52C | -0.087 ± 0.061
19 | M53A | -0.134 ± 0.068
20 | M53T | -0.249 ± 0.16
21 | M53G | -0.007 ± 0.058
22 | M53R | -0.311 ± 0.072
23 | M53W | -0.329 ± 0.088

Row | Variant | abundance fitness
24 | M53I | -0.141 ± 0.12
25 | M53D | 0.349 ± 0.093
26 | M53V | -0.184 ± 0.07
27 | M53E | 0.01 ± 0.095
28 | M53Q | -0.099 ± 0.099
29 | M53Y | -0.686 ± 0.31
30 | M53S | -0.145 ± 0.1
31 | M53P | -0.147 ± 0.15
32 | M53H | -0.249 ± 0.3
33 | M53L | 0.026 ± 0.079
34 | M53K | -0.269 ± 0.19
35 | R46N | 0.047 ± 0.17
36 | R46A | 0.106 ± 0.069
37 | R46E | 0.204 ± 0.09
38 | R46D | -0.195 ± 0.13
39 | R46V | 0.005 ± 0.039
40 | R46H | 0.011 ± 0.12
41 | R46P | -0.828 ± 0.41
42 | R46M | 0.325 ± 0.089
43 | R46Y | 0.181 ± 0.072
44 | R46W | -0.106 ± 0.039
45 | R46T | 0.136 ± 0.084
46 | R46C | -0.133 ± 0.076

Row | Variant | abundance fitness
47 | R46L | 0.054 ± 0.049
48 | R46I | 0.015 ± 0.12
49 | R46S | 0.043 ± 0.06
50 | R46F | 0.073 ± 0.067
51 | R46Q | -0.004 ± 0.12
52 | R46K | -0.007 ± 0.2
53 | N54T | 0.544 ± 0.12
54 | N54A | 0.246 ± 0.11
55 | N54I | -0.032 ± 0.12
56 | N54V | -0.075 ± 0.092
57 | N54H | 0.092 ± 0.37
58 | N54S | -0.051 ± 0.13
59 | N54D | -0.038 ± 0.22
60 | N54F | -0.537 ± 0.28
61 | N54W | -0.166 ± 0.077
62 | N54Y | -0.399 ± 0.16
63 | N54G | 0.344 ± 0.14
64 | M48Y | -0.696 ± 0.24
65 | M48N | -0.376 ± 0.099
66 | M48F | -0.688 ± 0.34
67 | M48L | -0.177 ± 0.048
68 | M48T | -0.635 ± 0.16
69 | M48G | -1.02 ± 0.1

Row | Variant | abundance fitness
70 | M48S | -0.95 ± 0.2
71 | M48C | -0.912 ± 0.28
72 | M48E | -0.674 ± 0.24
73 | M48K | -0.978 ± 0.44
74 | M48W | -0.359 ± 0.12
75 | M48P | -0.886 ± 0.069
76 | M48A | -0.821 ± 0.17
77 | M48R | -1 ± 0.16
78 | M48Q | -0.64 ± 0.15
79 | M48V | -0.463 ± 0.077
80 | M48D | -0.507 ± 0.28
81 | M48I | -0.395 ± 0.092
82 | K49L | -0.302 ± 0.045
83 | K49Q | -0.054 ± 0.16
84 | K49R | -0.358 ± 0.043
85 | K49D | -0.507 ± 0.14
86 | K49I | -0.415 ± 0.16
87 | K49C | 0.116 ± 0.086
88 | K49E | -0.235 ± 0.054
89 | K49M | -0.657 ± 0.19
90 | K49S | -0.286 ± 0.056
91 | K49T | -0.142 ± 0.045
92 | K49F | -0.535 ± 0.14

Row | Variant | abundance fitness
93 | K49N | -0.597 ± 0.16
94 | K49H | -0.462 ± 0.23
95 | K49G | -0.568 ± 0.073
96 | K49P | -0.766 ± 0.2
97 | K49A | -0.29 ± 0.046
98 | K49W | -0.334 ± 0.22
99 | W45S | -0.933 ± 0.18
100 | W45Y | -0.318 ± 0.1
101 | W45L | -0.815 ± 0.087
102 | W45Q | -0.914 ± 0.094
103 | W45V | -0.866 ± 0.089
104 | W45T | -0.986 ± 0.19
105 | W45K | -1.09 ± 0.14
106 | W45R | -0.953 ± 0.16
107 | L51M | -0.051 ± 0.065
108 | L51F | -0.355 ± 0.16
109 | L51C | -0.171 ± 0.096
110 | L51A | -0.043 ± 0.08
111 | L51Q | 0.036 ± 0.064

From the Human Domainome abundance scans (Beltran et al. 2025)
